{"source": "paper PMC7036004", "test_in_all_cases": "fluorescence polarization", "key": {"[1]": {"molecular_target": "T1, ΔRBRi-CTCF (3xFLAG-Halo-ΔRBRi-CTCF-6xHis) (mouse, UniProt Q61164 1-575+612-736, internal_change)", "T1 sequence": "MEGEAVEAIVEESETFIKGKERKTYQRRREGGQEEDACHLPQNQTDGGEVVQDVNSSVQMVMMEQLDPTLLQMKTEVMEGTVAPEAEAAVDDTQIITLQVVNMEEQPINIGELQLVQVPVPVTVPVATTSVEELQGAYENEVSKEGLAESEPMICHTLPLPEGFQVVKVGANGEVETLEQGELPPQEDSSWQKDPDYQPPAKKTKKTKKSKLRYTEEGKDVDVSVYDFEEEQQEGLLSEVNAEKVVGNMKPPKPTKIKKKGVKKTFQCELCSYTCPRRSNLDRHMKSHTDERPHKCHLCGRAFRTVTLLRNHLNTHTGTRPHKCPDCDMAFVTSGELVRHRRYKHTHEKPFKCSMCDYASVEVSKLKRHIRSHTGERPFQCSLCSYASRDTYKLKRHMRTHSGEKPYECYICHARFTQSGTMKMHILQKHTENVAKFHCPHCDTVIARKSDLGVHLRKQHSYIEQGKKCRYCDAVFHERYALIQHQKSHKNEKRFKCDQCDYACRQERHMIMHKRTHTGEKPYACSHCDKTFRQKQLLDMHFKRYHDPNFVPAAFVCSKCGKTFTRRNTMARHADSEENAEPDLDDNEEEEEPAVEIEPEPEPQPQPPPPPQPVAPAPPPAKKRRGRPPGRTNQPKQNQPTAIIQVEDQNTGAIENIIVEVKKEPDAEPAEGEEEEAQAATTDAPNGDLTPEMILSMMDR"}, "[2]": {"molecular_target": "T2, wt-CTCF (3xFLAG-Halo-wt-CTCF-6xHis) (mouse, UniProt Q61164 1-736)", "T2 sequence": "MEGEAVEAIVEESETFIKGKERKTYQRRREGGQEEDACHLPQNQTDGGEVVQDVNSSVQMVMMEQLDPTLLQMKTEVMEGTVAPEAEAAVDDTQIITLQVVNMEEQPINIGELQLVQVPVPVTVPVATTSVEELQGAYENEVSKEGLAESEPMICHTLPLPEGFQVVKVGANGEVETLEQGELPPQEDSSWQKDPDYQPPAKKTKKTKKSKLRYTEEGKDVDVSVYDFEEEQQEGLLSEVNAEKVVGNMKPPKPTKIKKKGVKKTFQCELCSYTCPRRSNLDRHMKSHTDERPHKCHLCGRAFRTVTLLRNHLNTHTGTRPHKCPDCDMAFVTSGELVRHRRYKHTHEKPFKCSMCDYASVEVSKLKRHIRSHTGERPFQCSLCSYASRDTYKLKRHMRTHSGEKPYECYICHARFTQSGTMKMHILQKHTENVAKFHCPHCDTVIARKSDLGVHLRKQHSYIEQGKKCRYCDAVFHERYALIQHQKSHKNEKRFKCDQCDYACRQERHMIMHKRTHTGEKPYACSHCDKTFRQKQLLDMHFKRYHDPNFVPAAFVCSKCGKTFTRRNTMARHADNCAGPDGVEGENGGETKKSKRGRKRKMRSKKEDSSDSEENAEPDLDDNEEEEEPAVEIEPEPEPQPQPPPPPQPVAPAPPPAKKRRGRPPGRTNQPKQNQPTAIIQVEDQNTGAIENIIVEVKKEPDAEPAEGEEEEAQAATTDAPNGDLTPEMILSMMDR"}, "[3]": {"molecular_target": "T1, ΔRBRi-CTCF …", "remark": "listed apart in the source"}, "[4]": {"molecular_target": "T2, wt-CTCF (3xFLAG-Halo-wt-CTCF-6xHis)", "remark": "listed apart in the source"}}, "note": "Where two headings read alike, the source gives them in different places."}
{"binder": "Core CTCF binding site duplex (dsDNA) DNA 1: AGGACCAGCAGGGGGCGCA DNA 2: TGCGCCCCCTGCTGGTCCT", "values": [{"measurement": "binding result", "setting": "[1]", "value": "binds"}, {"measurement": "binding result", "setting": "[2]", "value": "binds"}]}
{"binder": "Mutated core CTCF binding site duplex (dsDNA) DNA 1: AGGATTCTAATTTCGATCA DNA 2: TGATCGAAATTAGAATCCT", "values": [{"measurement": "binding result", "setting": "[3]", "value": "no binding"}, {"measurement": "binding result", "setting": "[4]", "value": "no binding"}]}
